This note sets out measurements from patent US20230243070A1 (Molecular Partners, published 2023).

Assay [1] has as its target T1, EBNApMHC (HLA-A*0201:EBNA-1), biotinylated recombinant complex (human; Epstein Barr virus). Nature of the assay: ribosome display selection, crude extract HTRF.
Assay [2] has as its target NYESOAApMHC (HLA-A*0201:NYESO1-9VAA), biotinylated recombinant complex (human). As to the kind of experiment: SPR (ProteOn), biotinylated pMHC on NLC chip.
In assay [3] the target is T1, EBNApMHC (HLA-A*0201:EBNA-1), …. Nature of the assay: SPR (ProteOn), biotinylated pMHC on NLC chip.
Assay [4] has as its target T2, NYESOpMHC (HLA-A*0201:NYESO1-9V), biotinylated recombinant complex (human).
T2 construct: also called NY-ESO-1 peptide-MHC complex
Nature of the assay: SPR (ProteOn), biotinylated pMHC on NLC chip, PBS with Tween.

B1: SEQ ID NO 94 (designed binder)
chain: GSDLGQKLLEAARKGQDDEVRELLKAGADVNAKDKAGWTPLHLAAYFGHLEIVEVLLKAGADVNAKDVIGWTPLHLAAWQGHLEIVEVLLKAGADVNAQDLKGQTPADLAAQEGNEDIAEVLQKAA
Turning to B1, the binding result in assay [1] is on record as “binds”.

B2: DARPin® protein #23 (designed binder)
chain: MRGSHHHHHHGSDLGIKLLYAANSGQDDEVRILLAAGADVNAKDEYGDTPLHKAAEYGHLEIVEVLLKAGADVNAKDVYGITPLHLAAIFGHLEIVEVLLKAGADVNAQDKKGHTPADLAAFVGHEDIAEVLQKAA
In the case of B2, the binding result in assay [2] was “no binding”; in assay [3] it was “no binding (tested: 3.7 nM to 300 nM, or 250 nM single trace)”. Also, the Kd in assay [4] turned out to be 93.9 pM.

B3: SEQ ID NO 110 (designed binder)
chain: GSDLGKKLLQAARAGQLDEVRELLKAGADVNAKDAAGWTPLHLAAAEGHLEIVEVLLKAGADVNAKDVVGQTPLHVAAVIGHLEIVEVLLKAGADVNAKDSAGYTPLHLAAREGHLEIVEVLLKAGADVNAQDKSGKTPADLAARAGHQDIAEVLQKAA
B3: the binding result in assay [1] was “binds”.

B4: SEQ ID NO 99 (designed binder)
chain: GSDLGAKLLFAAILGQDDEVRILLAAGADVNAKDETGHTPLHHAAHYGHLEIVEVLLKAGADVNAKDQYGFTPLHLAAYYGHLEIVEVLLKAGADVNAQDDDGITPADLAAAHGHEDIAEVLQKAA
B4: in assay [1], the binding result is “binds”.

B5: SEQ ID NO 97 (designed binder)
chain: GSDLGKKLLQAARAGQLDEVRELLKADADVNAKDTWGYTPLHLAAFHGHLEIVEVLLKAGADVNAKDELGKTPLHLAAYVGPLEIVEVLLKAGADVNAKDQHGYTPLHIAAAYGHLEIVEVLLKAGADVNAQDKSGKTPADLAARAGHQDIAEVLQKAA
Take B5: the binding result in assay [1] is given as “binds”.

B6: SEQ ID NO 105 (designed binder)
chain: GSDLGKKLLQAARAGQLDEVRELLKAGADVNAKDQEGRTPLHIAAAHGHLEIVEVLLKAGADVNAKDAYGYTPLHLAAFIGHLEIVEVLLKAGAEVNAKDKYGETPLHIAALTGHLEIVEVLLKAGADVNAQDKSGKTPADLAARAGHQDIAEVLQKAA
With B6, the binding result in assay [1] is “binds”.

B7: SEQ ID NO 103 (designed binder)
chain: GSDLGNKLLWAAYQGQDDEVRILLAAGADVNAKDYLGWTPLHIAATSGHLEIVEVLLKAGADVNAKDWYGYTPLHLAAEWGHLEIVEVLLKAGADVNAQDKSGKTPADLAADSGHEDIAEVLQKAA
Regarding B7, in assay [1], the binding result was “binds”.

B8: DARPin® protein #24 (designed binder)
chain: MRGSHHHHHHGSDLGEKLLYAAFYGQDDEVRILLTAGADVNAKDKYGLTPLHRAATHGHLEIVEVLLKAGADVNAKDEWGTTPLHIAAIFGHLEIVEVLLKAGADVNAQDEQGNTPADLAAVIGHEDIAEVLQKAA
B8: the binding result is given as “no binding” in assay [2] and “no binding (tested: 3.7 nM to 300 nM, or 250 nM single trace)” in assay [3]. Also, in assay [4], the Kd stood at 939 pM.

B9: SEQ ID NO 96 (designed binder)
chain: GSDLGKKLLQAARAGQLDEVRELLKAGADVNAKDLTGITPLHIAAREGHLEIVEVLLKAGADVNAKDAWGFTPLHVAAWTGHLEIVEVLLKAGADVNAKDLLGETPLHLAAEAGHLEIVEVLLKAGADVNAQDKSGKTPADLAARAGHQDIAEVLQKAA
As to B9, the binding result in assay [1] is given as “binds”.

B10: SEQ ID NO 109 (designed binder)
chain: GSDLGKKLLQAARAGQLDEVRELLKAGADVNAKDLSGVTPLHIAARSGHLEIVEVLLKAGADVNAKDAWGYTPLHVAAEHGHLEIVEVLLKAGADVNAKDHLGSTPLHIAASHGHLEIVEVLLKAGADVNAQDKSGKTPADLAARAGHQDIAEVLQKAA
Take B10: the binding result in assay [1] is on record as “binds”.

B11: SEQ ID NO 108 (designed binder)
chain: GSDLGKKLLQAARAGQLDEVRELLKAGADVNAKDQTGWTPLHIAAHTGHLEIVEVLLKAGADVNAKDAVGFTPLHVAAWSGHLEIVEVLLKDGADVNAKDTSGATPLHLAAEWGHLEIVEVLLKAGADVNAQDKSGKTPADLAARAGHQDIAEVLQKAA
For B11, the binding result in assay [1] is “binds”.

B12: SEQ ID NO 107 (designed binder)
chain: GSDLGKKLLQAARAGQLDEVRELLKAGADVNAKDLTGITPLHVAARSGHPEIVEVLLKAGADVNAKDAWGFTPLHVAAYKGHLEIVEVLLKAGADVNAKDQLGETPLHLAAAEGHLEIVEVLLKAGADVNAQDKSGKTPADLAARAGHQDIAEVLQKAA
Consider B12, for which the binding result in assay [1] is “binds”.

B13: SEQ ID NO 106 (designed binder)
chain: GSDLGKKLLQAARAGQLDEVRELLKAGADVNAKDLAGVTPLHVAARAGHLEIVEVLLKAGADVNAKDAWGFTPLHIAAYQGHLEIVEVLLKAGADVNAKDLLGSTPLHVAAETGHLEIVEVLLKAGADVNAQDKSGKTPADLAARAGHLDIAEVLQKAA
Take B13: the binding result in assay [1] is given as “binds”.

B14: SEQ ID NO 101 (designed binder)
chain: GSDLGEKLLAAALVGQDDEVRILLAVGADVNAKDVAGRTPLHRAALAGHLEIVEVLLKAGADVNAKDQSGFTPLHLAAVDGHLEIVEVLLKAGADVNAQDEIGATPADLAARIGHEDIAEVLQKAA
As to B14, the binding result in assay [1] is reported as “binds”.

B15: SEQ ID NO 95 (designed binder)
chain: GSDLGQKLLRAAQAGQDDEVRELLKAGADVNAKDEVGWTPLHLAAAWGHLEIVEVLLKAGADVNAKDHFGITPLHVAAELGHLEIVEVLLKAGADVNAQDLAGRAPADLAALEGHEDIAEVLQKAA
For the molecule B15, the binding result in assay [1] was “binds”.

B16: SEQ ID NO 93 (designed binder)
chain: GSDLGTKLLFAATLGQDDEVRILLAAGADVNAKDTIGRTPLHVAAHYGHLEIVEVLLKAGADVNAKDIYGFTPLHLAAYFGHLEIVEVLLKAGADVNAQDKTGKTPADLAAVIGHEDIAEVLQKAA
For the molecule B16, the binding result in assay [1] is “binds”.

B17: SEQ ID NO 100 (designed binder)
chain: GSDLGSKLLQAAAVGQDDEVRILLAAGADVNAKDDFGETPLHLAAWHGHLEIVEVLLKAGADVNAKDEQGFTPLHWAALTGHLEIVEVLLKAGADVNAQDKQGITPADLAANAGHEDIAEVLQKAA
Take B17: the binding result in assay [1] was “binds”.

B18: SEQ ID NO 104 (designed binder)
chain: GSDLGQKLLQAAQLGQDDEVRELLKAGADVNAKDTFGQTPLHPAAWSGHLEIVEVLLKAGADVNAKDKWGVTPLHLAAVSGHLEIVEVLLKAGADVNAQDLEGRTPADLAAKQGHEDIAEVLQKAA
In the case of B18, the binding result in assay [1] is listed as “binds”.

B19: DARPin® protein #30 (designed binder)
chain: MRGSHHHHHHGSDLGKKLLQAARAGQLDEVRELLKAGADVNAKDRFGIPLHIAASQGHLEIVEVLLKAGADVNAKDHWGETPLHLAAVFGHLEIVEVLLKAGADVNAKDHTGQTPLHLAAYLGHLEIVEVLLKAGADVNAQDKSGKTPADLAARAGHQDIAEVLQKAA
For B19, the binding result is “no binding” in assay [2] and “no binding (tested: 3.7 nM to 300 nM, or 250 nM single trace)” in assay [3]. Also, in assay [4], the Kd was determined as 2330 pM.

B20: DARPin® protein #32 (designed binder)
chain: MRGSHHHHHHGSDLGKKLLQAARAGQLDEVRELLKAGADVNAKDYFGSTPLHLAQLGHLEIVEVLLKAGADVNAKDYQGHTPLHVDAFHGHLEIVEVLLKAGADVNAKDQWGVTPLHLAAEWGHLEIVEVLLKAGADVNAQDKSGKTPADLAARAGHQDIAEVLQKAA
Regarding B20, the binding result in assay [2] is listed as “no binding”; in assay [3], “no binding (tested: 3.7 nM to 300 nM, or 250 nM single trace)”. Further, the Kd in assay [4] amounted to 1630 pM.

B21: SEQ ID NO 98 (designed binder)
chain: GSDLGDKLLFAAELGQDDEVRILLAAGADVNAKDSFGQTPLHRVAANHGHLEIVEVLLKAGADVNAKDSSGHTPLHVAALTGHLEIVEVLLKAGADVNAQDESGFTPADLAADVGHEDIAEVLQKAA
B21: in assay [1], the binding result is recorded as “binds”.

B22: DARPin® protein #29 (designed binder)
chain: MRGSHHHHHHGSDLGKKLLQAARAGQLDEVRELLKAGADVNAKDRAGSTPLHLAAFRGHLEIVEVLLKAGADVNAKDAAGYTPLHLAALYGHLEIVEVLLKAGADVNAKDHAGSTPLHLAALAGHLEIVEVLLKAGADVNAQDKSGKTPADLAARAGHQDIAEVLQKAA
As for B22, the binding result is reported as “no binding” in assay [2] and “no binding (tested: 3.7 nM to 300 nM, or 250 nM single trace)” in assay [3]. In addition, in assay [4], the Kd was determined as 635 pM.

B23: DARPin® protein #33 (designed binder)
chain: MRGSHHHHHHGSDLGKKLLQAARAGQLDEVRELLKAGADVNAKDAIGQTPLHLAAFRGHLEIVEVLLKAGADVNAKDVAGWTPLHIAAAYGHLEIVEVLLKAGADVNAKDAYGQTPLHLAAFQGHLEIVEVLLKAGADVNAQDKSGKTPADLAARAGHQDIAEVLQKAA
B23: the binding result is on record as “no binding” in assay [2] and “no binding (tested: 3.7 nM to 300 nM, or 250 nM single trace)” in assay [3]. Also, the Kd in assay [4] came out at 108 pM.

B24: DARPin® protein #31 (designed binder)
chain: MRGSHHHHHHGSDLGKKLLQAARAGQLDEVRELLKAGADVNAKDATGQTPLHVAAFRGHLEIVEVLLKAGADVNAKDKAGYTPLHIAAYAGHLEIVEVLLKAGADVNAKDHAGWTPLHLAAILGHLEIVEVLLKAGADVNAQDKSGKTPADLAARAGHQDIAEVLQKAA
For the molecule B24, the binding result is given as “no binding” in assay [2] and “no binding (tested: 3.7 nM to 300 nM, or 250 nM single trace)” in assay [3]. The Kd in assay [4] was 1320 pM.

B25: SEQ ID NO 102 (designed binder)
chain: GSDLGHKLLIAAYLGQDDEVRILLAAGADVNAKDDFGITPLHVAAQVGHLEIVEVLLKAGADVNAKDKSGLTPLHLAAYYGHLEIVEDLLKAGADVNAQDYSGETPADLAASLGHEDIAEVLQKAA
For B25, the binding result in assay [1] is “binds”.
